B1: TRIM35 (parent)
chain: PTCPVCKDRASPADLRTNHTLNNL
B2: RSPH3 (parent)
chain: QRLEEQERRHREEKERRKKQQWEI

Variants of: B1
Test: protein stability index of a GFP-peptide fusion (GPS, HEK-293T) (PSI 1-6); higher = more stable
Settings: c terminus: a fixed tail appended
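Also: lentivirally expressed fusions sorted by FACS into six bins by GFP to DsRed ratio, PSI derived from sequencing read proportions per bin multiplied by bin number.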

Protein stability index: each site, then its substitutions
N23: Y 1.88 | C 4.21 | D 3.81 | K 3.12 | S 3.18 | A 2.73 | F 2.27 | P 2.76 | M 2.47 | V 3.06 | R 2.37 | Q 3.1 | H 3.47 | L 2.28 | I 2.1 | G 2.92 | E 3.48 | W 2.09 | T 2.58
L21: D 3.99 | H 3.66 | N 3.27 | E 3.59 | S 3.42 | I 2.61 | F 2.62 | M 3.18 | Y 2.76 | K 3.13 | Q 3.52 | T 3.07 | G 3.3 | A 3.22 | C 4.64 | R 2.55 | V 2.96 | P 3.39 | W 2.18
T20: Y 2.74 | M 2.67 | W 2.09 | S 2.7 | N 3 | L 2.77 | V 3.19 | P 3.23 | K 2.81 | R 2.93 | I 2.76 | Q 3.06
L24: A 3.89 | Y 2.76 | Q 3.36 | D 4.37 | I 3.5 | W 3 | E 4.03 | R 1.82 | H 3.58 | C 3.94 | G 3.83 | V 3.56 | P 3.83 | N 3.91 | T 3.62 | M 2.8 | K 3.37 | F 3.32 | S 3.79
N22: F 2.13 | W 2.02 | T 2.76 | P 2.44 | I 2.65 | D 4.1 | E 3.73 | G 3.39 | R 1.98 | M 2.67 | Y 2.38 | H 2.9 | A 3.06 | S 2.99 | K 2.87 | C 4.13 | L 2.56 | V 2.21 | Q 3.63

Variants of: B2
Test: as above
Settings: c terminus: a fixed tail appended

Protein stability index of substitutions, site by site:
L3: V 4.82 | I 5 | C 4.36 | F 4.2 | G 4.75 | M 4.81 | D 4.82 | Y 4.43 | S 4.91 | Q 4.72 | E 5.28 | A 4.37 | N 4.59 | H 4.54 | R 5.08 | T 4.99 | K 4.4 | P 5 | W 4.06
H10: M 4.43 | S 4.53 | W 4.49 | K 4.84 | P 4.44 | A 4.94 | V 4.45 | T 4.79 | F 4.48 | I 4.5 | E 5.26 | R 3.69 | Y 4.05 | L 4.87 | G 4.51 | Q 5.04 | N 5.08 | D 4.38
Q1: H 5.33 | P 5.21 | K 4.29 | L 4.35 | E 4.86 | R 4.49 | F 4.28 | N 4.5 | G 4.83 | M 4.76 | I 4.4 | Y 4.42 | V 4.81 | A 4.69 | D 4.59 | C 3.83 | T 4.78 | W 4.13 | S 4.66
K14: A 4.83 | C 4.63
R2: H 4.53 | G 4.54 | N 5.06 | K 4.26 | M 4.06 | I 3.83 | D 5.14 | Q 4.94 | Y 4.07 | W 3.79 | S 5 | L 4.63 | F 4.48 | A 4.57 | T 5.02 | C 4.58 | E 5.24 | P 4.1 | V 4.47
E5: C 4.38 | S 4.5 | Q 5.01 | H 4.59 | V 4.58 | M 4.59 | T 4.01 | D 4.55 | W 3.98 | Y 4.28 | A 4.63 | N 3.67 | R 4.13 | F 3.61 | L 4.44 | G 4.53 | I 4.62 | K 3.39 | P 4.42
R8: P 5.03 | L 3.69 | I 4.42 | H 4.57 | Y 4.24 | D 4.79 | Q 4.61 | E 4.95 | C 3.71 | W 4.09 | A 4.86 | T 4.97 | K 4.33 | V 5.02 | N 3.93 | S 4.64 | G 5.02 | F 4.28 | M 3.7
R11: A 4.91 | V 4.24 | W 4.44 | L 4.25 | H 4.51 | G 5.08 | Q 4.67 | I 4.22 | F 4.64 | T 4.62 | Y 4.68 | E 5.19 | P 5.34 | K 4.23 | M 4.6 | C 4.83 | S 4.35 | N 5.19 | D 4.93
E13: M 3.99 | A 3.79 | G 4.55 | H 4.19 | I 3.88 | S 4.02 | L 3.95 | V 4.14 | P 4.06 | N 4.16 | C 3.82 | R 4.47 | D 4.74 | Q 4.52 | T 4.32 | W 3.34 | K 4.17 | Y 3.77 | F 3.72
Q6: W 4.18 | N 4.4 | L 4.49 | D 4.6 | R 4.42 | P 4.47 | I 4.62 | E 4.91 | A 4.9 | G 4.59 | H 4.39 | K 4.19 | C 4.63 | F 4 | S 4.82 | M 3.96 | T 4.81 | V 4.85 | Y 4.48
E12: C 4.32 | L 4.42 | D 5 | Q 4.2 | T 4.28 | W 2.58 | A 4.84 | G 4.36 | R 4.37 | N 4.57 | H 4.03 | Y 3.78 | K 3.58 | P 4.07 | S 3.99 | V 4.5 | I 3.64
E4: W 4.04 | L 4.46 | I 4.17 | Y 3.67 | D 4.56 | P 4.48 | F 4.47 | V 3.99 | A 4.21 | H 4.18 | N 4.9 | R 3.84 | Q 4.46 | G 5.08 | S 4.84 | K 4.44 | M 4.1 | T 4.15 | C 4.38
R9: P 4.92 | V 4.85 | S 3.85 | G 4.85 | D 4.97 | A 5.32 | C 4.84 | W 4.47 | L 4.81 | I 4.4 | N 4.56 | E 4.49 | T 4.51 | M 5.37 | Y 4.66 | Q 4.63 | H 5.33 | F 4.98 | K 4.21
E7: Y 3.81 | A 4.36 | D 4.04 | S 3.88 | I 3.86 | H 4.28 | G 3.95 | L 4.55 | Q 3.38 | F 4.41 | P 4.75 | K 4.36 | V 4.57 | T 4.95 | M 3.38 | N 4.25 | C 4.15 | R 4.26 | W 4.25
